In the supplement of paper PMC12764529:
± gives the half width of the 95% confidence interval.

Experiments:
[1] = folding stability dG unfold (combined trypsin and chymotrypsin); higher = more stable
In short: (§1)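 Unfolding free energy was derived, per protease or combined, against a sequence-predicted unfolded-state K50 and a shared folded-state K50, starting from K50 inferred by Bayesian fitting of sequencing counts. Digestion with trypsin and chymotrypsin was carried out on designed mini-proteins under 80 residues without cysteine in a PA-tagged cDNA display construct. Only designs with AlphaFold2 dimer inter-PAE above 15 were kept.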

[2] = folding stability dG unfold from trypsin proteolysis; higher = more stable
In short: as §1

[3] = folding stability dG unfold from chymotrypsin proteolysis; higher = more stable
In short: as §1

## SMPEIKVEKKNGKLTITVPKGAKIKIKIEVNGKKIEKEVEVKEGETVTITIELPPNMPKDVKIKEIEIEKSA [r9_1152_TrROS_Hall]
[1]
  folding stability dG unfold: 1.88 ± 0.13 kcal/mol
[2]
  folding stability dG unfold: 1.61 ± 0.066 kcal/mol
[3]
  folding stability dG unfold: 1.93 ± 0.13 kcal/mol

## SMPEKYIVRVEVRGRDGKTVTFEAEATVDSSDFDDFIEAILEAPGLEDADEVRFYVYRLGTGRPEEFTVPSA [r9_97_TrMRF]
[1]
  folding stability dG unfold: 2.7 ± 0.069 kcal/mol
[2]
  folding stability dG unfold: 2.01 ± 0.069 kcal/mol
[3]
  folding stability dG unfold: 3.03 ± 0.06 kcal/mol

## SMPEVRVEEVTIELEFTLPDGRTVRVEIRLTRVTLPDGRVFTRLEIKVEVPEEDEEARKLLKELLEELLSSA [r9_908_TrROS_Hall]
[1]
  folding stability dG unfold: 4.69 ± 0.12 kcal/mol
[2]
  folding stability dG unfold: 4.52 ± 0.14 kcal/mol
[3]
  folding stability dG unfold: 4.75 ± 0.13 kcal/mol

## SMPGVRVRLYTVRVKTPEGGELTAPIAVPAELFTEEEIRELVREAFPDAEDVEIEPAVLELPPAPGLLTASA [r9_841_TrMRF]
[1]
  folding stability dG unfold: 1.43 ± 0.079 kcal/mol
[2]
  folding stability dG unfold: 1.39 ± 0.034 kcal/mol
[3]
  folding stability dG unfold: 1.31 ± 0.1 kcal/mol

## SMPLIIIAKKNKDGTGTILIKKGDKVIEIEFEKNIKPEELKKKAIETALTLKKKTEELGIPIEIKEIIFESA [r9_751_TrMRF]
[1]
  folding stability dG unfold: 2.1 ± 0.091 kcal/mol
[2]
  folding stability dG unfold: 1.77 ± 0.082 kcal/mol
[3]
  folding stability dG unfold: 2.23 ± 0.077 kcal/mol

## SMPLLVKVDTPEQREKLLKVLEEIEKETDIKIELVSEHPDGKYEFLIEAPLEEAVKIAKKLKEAGNVEIVSA [r9_472_TrMRF]
[1]
  folding stability dG unfold: 3.7 ± 0.1 kcal/mol
[2]
  folding stability dG unfold: 3.89 ± 0.19 kcal/mol
[3]
  folding stability dG unfold: 3.48 ± 0.12 kcal/mol

## SMPPEDPGELTLVVPDTRNVTVTLPVPVPPEARVLVTFSDGRRVEAPAGTELTFTIPPGRPYVIRVEVYASA [r9_79_TrMRF]
[1]
  folding stability dG unfold: 1.6 ± 0.076 kcal/mol
[2]
  folding stability dG unfold: 1.2 ± 0.027 kcal/mol
[3]
  folding stability dG unfold: 1.86 ± 0.085 kcal/mol

## SMPPGERYRMTMKFPDGKKITLEMNPGGWWRIKVENKNGKPQHQQPIPPDNPQELAENFGIDKVTDVEPVSA [r9_1107_TrROS]
[1]
  folding stability dG unfold: 2.05 ± 0.17 kcal/mol
[2]
  folding stability dG unfold: 2.01 ± 0.095 kcal/mol
[3]
  folding stability dG unfold: 2.02 ± 0.2 kcal/mol

## SMPPLGEETTLLETIELPEKLTVEIRRVTLPNGVPLIEVSKTDPSGNTTPIFRAPGNDPAALAAARAALASA [r9_1069_JUSTAS]
[1]
  folding stability dG unfold: 0.262 ± 0.21 kcal/mol
[2]
  folding stability dG unfold: 0.438 ± 0.078 kcal/mol
[3]
  folding stability dG unfold: -0.0163 ± 0.47 kcal/mol

## SMPTLKITIEKKLPNGEKKKIEIEISLEELLKEARKKKGLESEEEAREALAKELAEKLKEEGYKVKIEPVSA [r9_868_TrROS_Hall]
[1]
  folding stability dG unfold: 0.525 ± 0.32 kcal/mol
[2]
  folding stability dG unfold: 0.855 ± 0.17 kcal/mol
[3]
  folding stability dG unfold: 0.209 ± 0.42 kcal/mol

## SMPVGVEELAERLAEEIEKELSEKTGVPVKVEKITVEEDPATGTVTVTITLYLPDGKKIREESLTVPVLESA [r9_60_JUSTAS]
[1]
  folding stability dG unfold: 1.53 ± 0.065 kcal/mol
[2]
  folding stability dG unfold: 1.59 ± 0.051 kcal/mol
[3]
  folding stability dG unfold: 1.52 ± 0.037 kcal/mol

## SMSFEAELTLPDQPVTVPVTLDPATGTATVTVTTTHPDRDETTTTTVTVSDPSELLALLRELPPGATLRLSA [r9_713_JUSTAS]
[1]
  folding stability dG unfold: 0.771 ± 0.068 kcal/mol
[2]
  folding stability dG unfold: 0.307 ± 0.079 kcal/mol
[3]
  folding stability dG unfold: 0.974 ± 0.059 kcal/mol

## SMSIELDAESIEEIADFLKKAIEDGNPDAKIRIELYPLGGEREEREYDSIDEIIAELKKGPARIRIELEPSA [r9_589_TrMRF]
[1]
  folding stability dG unfold: 1.88 ± 0.11 kcal/mol
[2]
  folding stability dG unfold: 1.36 ± 0.037 kcal/mol
[3]
  folding stability dG unfold: 2.29 ± 0.11 kcal/mol

## SMSLVVSEEVDPATGTTTVTTTFPSPGVTVTATASAAGDSVTTTVTTTSPAPSAPTTTTTTTPVAPPGTDAS [r1_404_JUSTAS]
[1]
  folding stability dG unfold: 0.806 ± 0.087 kcal/mol
[2]
  folding stability dG unfold: 1.55 ± 0.067 kcal/mol
[3]
  folding stability dG unfold: -0.3 ± 0.077 kcal/mol

## SMSVSTSTEKLPTDLYITEKEIKIEPVDPTKNVYRVTVKTTIVDKNGNVVKEEEKEEIIPLSELEKRIKSSA [r9_234_JUSTAS]
[1]
  folding stability dG unfold: 1.54 ± 0.28 kcal/mol
[2]
  folding stability dG unfold: 1.2 ± 0.085 kcal/mol
[3]
  folding stability dG unfold: 1.61 ± 0.1 kcal/mol

## SMSVVVPPDEGLTVTLTTLPGGTIEIHVGDTVLTRDVAPGETLTVTVPPDRTGNTVTVVGPGGVVVTSSGSA [r9_143_JUSTAS]
[1]
  folding stability dG unfold: 0.95 ± 0.044 kcal/mol
[2]
  folding stability dG unfold: 1.18 ± 0.048 kcal/mol
[3]
  folding stability dG unfold: 0.71 ± 0.024 kcal/mol

## SMTIELTVPSPEELLAALKALADAGIKGAKIRITVTNPDGEEQEIEVDSIEDLEALIESGPVTVRVEIEPSA [r9_589_TrROS_Hall]
[1]
  folding stability dG unfold: 3.05 ± 0.14 kcal/mol
[2]
  folding stability dG unfold: 3.56 ± 0.13 kcal/mol
[3]
  folding stability dG unfold: 2.5 ± 0.084 kcal/mol

## SMTIRIVDEKTKEVREIKIENLTVEKEKDGRYRMTREQVLEALKKLLPEDVKIVEVEENEDGELTIVVEPSA [r9_997_TrROS_Hall]
[1]
  folding stability dG unfold: 2.77 ± 0.083 kcal/mol
[2]
  folding stability dG unfold: 2.41 ± 0.051 kcal/mol
[3]
  folding stability dG unfold: 2.906 ± 0.025 kcal/mol

## SMTISIPGGITITIEPKPNSYTLTVSFPDGSTVTRPVDPSDLTSAIKAVIREALRRADPNITEEEIEKLLSA [r9_634_JUSTAS]
[1]
  folding stability dG unfold: > 6 kcal/mol
[2]
  folding stability dG unfold: 4.39 ± 0.1 kcal/mol
[3]
  folding stability dG unfold: 6.07 ± 0.17 kcal/mol

## SMTITVKPENIEEVLAQIKALAAKHPKPVTITLEMSPEEVEKLRKALEDAGYKVEVDEKTGKVRIEIKVPSA [r9_600_TrROS_Hall]
[1]
  folding stability dG unfold: 3.63 ± 0.074 kcal/mol
[2]
  folding stability dG unfold: 4.52 ± 0.22 kcal/mol
[3]
  folding stability dG unfold: 3.05 ± 0.096 kcal/mol

## SMTLVLDVSPDKAYKFKIEYKTPDGKRLTVDADTTMEPDGTARVPLKIPDSSVPPGTPLEIEKVEVTPLLSA [r9_359_JUSTAS]
[1]
  folding stability dG unfold: 0.436 ± 0.066 kcal/mol
[2]
  folding stability dG unfold: -0.136 ± 0.085 kcal/mol
[3]
  folding stability dG unfold: 0.699 ± 0.099 kcal/mol

## SMTPEEVKALAEELAERLKEEGYEVEVKVTVEEVDGEKYVTIEIEVRRPDGSTETFRLVIREDGSIEIYPSA [r9_1027_TrROS_Hall]
[1]
  folding stability dG unfold: 4.37 ± 0.17 kcal/mol
[2]
  folding stability dG unfold: 3.49 ± 0.19 kcal/mol
[3]
  folding stability dG unfold: 4.54 ± 0.17 kcal/mol

## SMTRVKVELLITNPATGETFYYDIEATEEEAEEIAKELEESYPEKNATVTIKKKEVIPVEPPVVLPEGILSA [r9_14_JUSTAS]
[1]
  folding stability dG unfold: 0.815 ± 0.069 kcal/mol
[2]
  folding stability dG unfold: 0.418 ± 0.036 kcal/mol
[3]
  folding stability dG unfold: 0.906 ± 0.057 kcal/mol

## SMTTEEKVEVSVTVTPDPNSDNVTLTLTITKRTYAKDENGNWTEVSTETSTITVTLSPEEAAKLAAELLSSA [r9_642_JUSTAS]
[1]
  folding stability dG unfold: 4.34 ± 0.17 kcal/mol
[2]
  folding stability dG unfold: 3.75 ± 0.2 kcal/mol
[3]
  folding stability dG unfold: 4.52 ± 0.099 kcal/mol

## SMTVEVELTVTVEVVDPKTGKKKTVTVKVTVKVRVTEVKTKDGKTEVKVELSEEALEEARRLAEELAKKKSA [r9_698_TrROS_Hall]
[1]
  folding stability dG unfold: 2.89 ± 0.46 kcal/mol
[2]
  folding stability dG unfold: 3.13 ± 0.13 kcal/mol
[3]
  folding stability dG unfold: 2.95 ± 0.38 kcal/mol

## SMTYSYGVDVSEDPNSDKTTATITTTSSDGSSSLSPEEVAAELAAEAKAAGYTVDVELRPGSVTITVTAPSA [r9_510_JUSTAS]
[1]
  folding stability dG unfold: 0.354 ± 0.059 kcal/mol
[2]
  folding stability dG unfold: 0.464 ± 0.018 kcal/mol
[3]
  folding stability dG unfold: 0.108 ± 0.086 kcal/mol

## SMVEIKVEKKEDGTVKITIVAPLEKAEEIAKKLAEELGKEVKIVKIEKKKVKVNGEERELVKIEIEIRLPSA [r9_431_TrROS_Hall]
[1]
  folding stability dG unfold: 2.24 ± 0.78 kcal/mol
[2]
  folding stability dG unfold: 2.86 ± 0.28 kcal/mol
[3]
  folding stability dG unfold: 2.23 ± 0.31 kcal/mol

## SMVEIKVEPEKSIIKATLTLKDKTVEEIKQLAKEYFEKLGYKIKVEVKEVKTFEDSVTLKFEIKVPKGLVSA [r9_347_JUSTAS]
[1]
  folding stability dG unfold: 2.45 ± 0.26 kcal/mol
[2]
  folding stability dG unfold: 1.94 ± 0.1 kcal/mol
[3]
  folding stability dG unfold: 2.27 ± 0.11 kcal/mol

## SMVELKITVKTPEELKKLEEAFKELGVEEVTIERKEDGTVTITVTFKESEEELEERVREALEELGFEVEPSA [r9_1003_TrROS_Hall]
[1]
  folding stability dG unfold: 3.18 ± 0.22 kcal/mol
[2]
  folding stability dG unfold: 3.33 ± 0.18 kcal/mol
[3]
  folding stability dG unfold: 2.82 ± 0.23 kcal/mol

## SMVIEINEDGTVKVYLPEELKGLSAEEIEELIKKLFGPNVKIEKIEIFEPPPKLTEEEKEELKKLPKEEKSA [r9_1011_TrROS_Hall]
[1]
  folding stability dG unfold: 1.41 ± 0.33 kcal/mol
[2]
  folding stability dG unfold: 0.866 ± 0.17 kcal/mol
[3]
  folding stability dG unfold: 1.76 ± 0.14 kcal/mol

## SMVKVEIEEENGEKTIRIVNEETGVVVEIKFPEGEEVIEVPSVEELVEELKELGENIEITKIEPLSEEELSA [r9_1102_TrROS_Hall]
[1]
  folding stability dG unfold: 0.661 ± 0.25 kcal/mol
[2]
  folding stability dG unfold: 0.425 ± 0.14 kcal/mol
[3]
  folding stability dG unfold: 0.497 ± 0.084 kcal/mol

## SMVQGTVLPPNGQRLTFEFDPAGTAQERAEQVRALLEALLPPDLKIEVERVEPDRPISADEPGTVLARADSA [r9_178_TrMRF]
[1]
  folding stability dG unfold: -0.248 ± 0.28 kcal/mol
[2]
  folding stability dG unfold: -0.914 ± 0.56 kcal/mol
[3]
  folding stability dG unfold: 0.0574 ± 0.19 kcal/mol

## SMVRITVYRNGKELSEEELRELAAELERETGRRITVEELARRLAARPGLTVRIEVFNEDGELVEERELRVSA [r9_1045_TrROS_Hall]
[1]
  folding stability dG unfold: 4.71 ± 0.076 kcal/mol
[2]
  folding stability dG unfold: 3.42 ± 0.058 kcal/mol
[3]
  folding stability dG unfold: 5.14 ± 0.11 kcal/mol

## SMVTSETRETVTVTLPDGTVVTVTVTTHRPADGVPTATVTVTTTSADGTPTTSTHTFPAAEAPALIAAALSA [r9_189_JUSTAS]
[1]
  folding stability dG unfold: 2.35 ± 0.086 kcal/mol
[2]
  folding stability dG unfold: 2.84 ± 0.13 kcal/mol
[3]
  folding stability dG unfold: 1.96 ± 0.044 kcal/mol

## SMVTVEEYEEDDEYYVKVYDPEKGVGVVFKTKDGVFKMPVTDPEALKEAIKASGIDVEIVEVRPLGPGLVSA [r9_1102_JUSTAS]
[1]
  folding stability dG unfold: 0.492 ± 0.083 kcal/mol
[2]
  folding stability dG unfold: 0.357 ± 0.036 kcal/mol
[3]
  folding stability dG unfold: 0.581 ± 0.1 kcal/mol

## SMVVERDPDGVLRVYASPEEAERIVAELKAAGLDARVEAFDPETGVWVIPVRPVPPAGLEPTPENQALNRVS [r1_78_JUSTAS]
[1]
  folding stability dG unfold: 0.962 ± 0.071 kcal/mol
[2]
  folding stability dG unfold: 0.502 ± 0.029 kcal/mol
[3]
  folding stability dG unfold: 1.23 ± 0.073 kcal/mol
